Experimental data taken from PMC12098916, “Modelling POLG mutations in mice unravels a critical role of POLγΒ in regulating phenotypic severity”.
One block for each molecule: values may come before it.

Columns and labels:
[1] = biological target: mouse DNA polymerase γ catalytic subunit, Y933C variant (mPolγA^Y933C) (mouse) (UniProt P54099); assay: thermal shift assay (thermofluor, SYPRO Orange); 0.5 µM PolγA with or without 0.75 µM PolγB (1:1.5), mixed on ice for 5 min; 20 mM Tris pH 8, 1 mM DTT, final NaCl 175 ± 50 mM; 4 to 95 °C in steps of 0.5 °C
[2] = biological target: mouse DNA polymerase γ catalytic subunit, wild type (mPolγA^WT) (mouse) (UniProt P54099); assay: as above
[3] = biological target: T1, mouse PolγA (mPolγA WT);mouse PolγB (mPolγB) (Mus musculus;Mus musculus, UniProt P54099;Q9QZM2 26-1218;1-459, |); assay: cryo-EM; R (replication) conformer; 10 mM Ca2+, 0.2 mM dCTP; EMSA: 25 mM Tris-HCl pH 8.0, ~30 mM NaCl, 1 mM TCEP, 0.1 mg/ml BSA, 10% glycerol, 10 uM ddCTP, 0.5 nM DNA, 6.6 nM POLγB dimer, ice 10 min then room temperature; details: protein: recombinant;recombinant; tags: 6xHis;6xHis; copies: 1;2; 15 nt 5' overhang on strand 1; single mismatch at primer 3' end
[4] = biological target: mouse PolγA (mPolγA WT);human POLγB (hPOLγB) (Mus musculus;Homo sapiens, UniProt P54099;Q9UHN1 26-1218;26-485, |); assay: cryo-EM; chimera mAhB, human-like E conformer; 10 mM Ca2+, 0.2 mM dCTP; EMSA: 25 mM Tris-HCl pH 8.0, ~30 mM NaCl, 1 mM TCEP, 0.1 mg/ml BSA, 10% glycerol, 10 uM ddCTP, 0.5 nM DNA, 6.6 nM POLγB dimer, ice 10 min then room temperature; details: protein: recombinant;recombinant; tags: 6xHis;6xHis; copies: 1;2; 15 nt 5' overhang on strand 1; single mismatch at primer 3' end
[5] = biological target: human POLγA (hPOLγA WT);human POLγB (hPOLγB) (Homo sapiens;Homo sapiens, UniProt P54098;Q9UHN1 26-1239;26-485, |); assay: EMSA; 10 uM ddCTP; value in Supp Fig 13f not in material; EMSA: 25 mM Tris-HCl pH 8.0, ~30 mM NaCl, 1 mM TCEP, 0.1 mg/ml BSA, 10% glycerol, 10 uM ddCTP, 0.5 nM DNA, 6.6 nM POLγB dimer, ice 10 min then room temperature; details: protein: recombinant;recombinant; tags: 6xHis;6xHis; copies: 1;2; label: 32P 5' on 21-mer; 21 bp, 15 nt 5' overhang on strand 1
[6] = biological target: T1, mouse PolγA (mPolγA WT);mouse PolγB …; assay: EMSA; 10 uM ddCTP; value in Supp Fig 13f not in material; marginally weaker than human; EMSA: 25 mM Tris-HCl pH 8.0, ~30 mM NaCl, 1 mM TCEP, 0.1 mg/ml BSA, 10% glycerol, 10 uM ddCTP, 0.5 nM DNA, 6.6 nM POLγB dimer, ice 10 min then room temperature; details: protein: recombinant;recombinant; tags: 6xHis;6xHis; copies: 1;2; label: 32P 5' on 21-mer; 21 bp, 15 nt 5' overhang on strand 1

T1 sequence (P54099 26-1218, chain 1 of 2): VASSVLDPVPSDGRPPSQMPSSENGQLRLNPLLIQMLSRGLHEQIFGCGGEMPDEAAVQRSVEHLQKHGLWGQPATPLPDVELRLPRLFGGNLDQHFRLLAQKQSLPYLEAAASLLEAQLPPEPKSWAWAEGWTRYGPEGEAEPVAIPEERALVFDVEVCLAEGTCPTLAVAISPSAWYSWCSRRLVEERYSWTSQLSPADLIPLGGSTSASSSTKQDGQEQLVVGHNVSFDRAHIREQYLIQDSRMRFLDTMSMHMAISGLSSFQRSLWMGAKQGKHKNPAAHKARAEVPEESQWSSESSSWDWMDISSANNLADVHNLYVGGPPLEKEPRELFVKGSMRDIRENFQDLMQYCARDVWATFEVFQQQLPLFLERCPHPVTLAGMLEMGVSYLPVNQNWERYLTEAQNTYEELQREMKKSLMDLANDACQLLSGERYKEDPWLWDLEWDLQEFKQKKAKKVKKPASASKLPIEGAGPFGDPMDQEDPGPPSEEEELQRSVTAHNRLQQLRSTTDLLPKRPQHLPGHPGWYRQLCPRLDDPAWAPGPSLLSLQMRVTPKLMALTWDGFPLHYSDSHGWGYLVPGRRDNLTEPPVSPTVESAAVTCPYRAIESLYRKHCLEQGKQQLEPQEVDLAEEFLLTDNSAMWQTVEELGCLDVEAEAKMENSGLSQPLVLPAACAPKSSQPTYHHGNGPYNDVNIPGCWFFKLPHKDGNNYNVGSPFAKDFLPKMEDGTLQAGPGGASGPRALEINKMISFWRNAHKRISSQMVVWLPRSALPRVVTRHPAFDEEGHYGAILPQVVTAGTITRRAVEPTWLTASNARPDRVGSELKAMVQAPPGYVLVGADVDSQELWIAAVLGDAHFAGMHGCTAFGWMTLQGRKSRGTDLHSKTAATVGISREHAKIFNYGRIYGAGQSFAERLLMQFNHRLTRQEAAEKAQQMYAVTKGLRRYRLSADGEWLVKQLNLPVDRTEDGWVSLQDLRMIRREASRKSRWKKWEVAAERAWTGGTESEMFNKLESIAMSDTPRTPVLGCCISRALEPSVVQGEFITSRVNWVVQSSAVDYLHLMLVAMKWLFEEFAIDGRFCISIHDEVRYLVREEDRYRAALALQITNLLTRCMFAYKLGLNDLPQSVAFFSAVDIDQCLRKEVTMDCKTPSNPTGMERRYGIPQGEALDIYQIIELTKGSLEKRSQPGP
T1 sequence (Q9QZM2 whole entry, chain 2 of 2): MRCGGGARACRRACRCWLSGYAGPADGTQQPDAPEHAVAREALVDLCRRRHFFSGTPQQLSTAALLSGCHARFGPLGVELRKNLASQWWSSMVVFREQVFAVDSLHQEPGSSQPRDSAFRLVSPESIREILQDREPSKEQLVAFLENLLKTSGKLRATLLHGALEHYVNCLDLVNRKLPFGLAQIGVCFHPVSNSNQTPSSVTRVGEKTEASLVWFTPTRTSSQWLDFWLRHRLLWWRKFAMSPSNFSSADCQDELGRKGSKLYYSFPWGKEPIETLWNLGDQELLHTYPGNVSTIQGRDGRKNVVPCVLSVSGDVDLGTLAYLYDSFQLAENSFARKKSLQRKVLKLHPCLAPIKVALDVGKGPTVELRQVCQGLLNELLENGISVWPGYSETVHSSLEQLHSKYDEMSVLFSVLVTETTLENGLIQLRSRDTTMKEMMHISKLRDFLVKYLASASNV
Sequence of mouse DNA polymerase γ catalytic subunit, wild type (mPolγA^WT) (mouse) (P54099 whole entry): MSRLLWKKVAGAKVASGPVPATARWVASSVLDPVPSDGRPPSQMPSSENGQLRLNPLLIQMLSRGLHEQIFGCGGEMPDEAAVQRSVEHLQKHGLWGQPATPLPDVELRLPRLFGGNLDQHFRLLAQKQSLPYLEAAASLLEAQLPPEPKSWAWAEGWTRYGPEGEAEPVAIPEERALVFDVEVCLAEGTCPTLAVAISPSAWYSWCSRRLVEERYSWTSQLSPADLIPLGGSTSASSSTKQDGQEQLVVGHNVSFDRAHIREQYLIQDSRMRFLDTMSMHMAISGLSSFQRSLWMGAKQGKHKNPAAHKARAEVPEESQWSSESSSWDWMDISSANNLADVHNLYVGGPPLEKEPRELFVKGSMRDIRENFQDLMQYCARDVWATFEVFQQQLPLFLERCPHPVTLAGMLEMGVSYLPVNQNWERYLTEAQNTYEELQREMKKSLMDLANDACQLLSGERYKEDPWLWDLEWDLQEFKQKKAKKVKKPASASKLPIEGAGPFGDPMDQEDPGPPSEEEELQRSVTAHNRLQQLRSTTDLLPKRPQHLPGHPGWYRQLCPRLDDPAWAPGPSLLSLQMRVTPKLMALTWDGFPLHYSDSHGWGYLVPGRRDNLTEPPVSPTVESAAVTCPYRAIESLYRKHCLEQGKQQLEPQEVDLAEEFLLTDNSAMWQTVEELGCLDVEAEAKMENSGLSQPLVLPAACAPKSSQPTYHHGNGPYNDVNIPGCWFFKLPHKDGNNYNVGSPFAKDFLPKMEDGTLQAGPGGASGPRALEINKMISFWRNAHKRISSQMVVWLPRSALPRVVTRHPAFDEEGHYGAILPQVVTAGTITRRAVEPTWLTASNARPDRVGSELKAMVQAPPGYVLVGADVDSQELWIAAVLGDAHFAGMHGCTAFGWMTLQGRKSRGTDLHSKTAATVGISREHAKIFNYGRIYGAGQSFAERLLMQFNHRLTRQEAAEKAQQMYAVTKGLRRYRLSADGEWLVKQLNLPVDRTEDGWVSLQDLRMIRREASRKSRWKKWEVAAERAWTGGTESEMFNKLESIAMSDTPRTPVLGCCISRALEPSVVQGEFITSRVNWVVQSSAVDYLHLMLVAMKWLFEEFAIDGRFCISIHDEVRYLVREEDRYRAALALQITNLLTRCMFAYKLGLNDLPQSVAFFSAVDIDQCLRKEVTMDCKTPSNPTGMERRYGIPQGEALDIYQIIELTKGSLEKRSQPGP
Sequence of mouse DNA polymerase γ catalytic subunit, Y933C variant (mPolγA^Y933C) (mouse) (P54099 whole entry Y934C): as the sequence (P54099 whole entry) above, with Y934C counted along it
Sequence of mouse PolγA (mPolγA WT);human POLγB (hPOLγB) (P54099 26-1218, chain 1 of 2): as the sequence (P54099 26-1218, chain 1 of 2) above
Sequence of mouse PolγA (mPolγA WT);human POLγB (hPOLγB) (Q9UHN1 26-485, chain 2 of 2): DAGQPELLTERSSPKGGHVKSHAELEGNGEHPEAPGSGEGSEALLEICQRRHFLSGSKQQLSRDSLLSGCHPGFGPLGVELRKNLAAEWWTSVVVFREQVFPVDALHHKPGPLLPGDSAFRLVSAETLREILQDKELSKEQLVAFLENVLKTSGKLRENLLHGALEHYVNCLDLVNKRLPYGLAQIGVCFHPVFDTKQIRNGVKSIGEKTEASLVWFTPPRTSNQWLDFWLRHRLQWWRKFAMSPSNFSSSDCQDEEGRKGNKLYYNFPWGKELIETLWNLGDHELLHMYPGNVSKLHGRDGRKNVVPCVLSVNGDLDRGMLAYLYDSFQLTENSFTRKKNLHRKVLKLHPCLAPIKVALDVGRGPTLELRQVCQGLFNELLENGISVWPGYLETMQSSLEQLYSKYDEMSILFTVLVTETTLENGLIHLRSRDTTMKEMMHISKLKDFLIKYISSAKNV
Sequence of human POLγA (hPOLγA WT);human POLγB (hPOLγB) (P54098 26-1239, chain 1 of 2): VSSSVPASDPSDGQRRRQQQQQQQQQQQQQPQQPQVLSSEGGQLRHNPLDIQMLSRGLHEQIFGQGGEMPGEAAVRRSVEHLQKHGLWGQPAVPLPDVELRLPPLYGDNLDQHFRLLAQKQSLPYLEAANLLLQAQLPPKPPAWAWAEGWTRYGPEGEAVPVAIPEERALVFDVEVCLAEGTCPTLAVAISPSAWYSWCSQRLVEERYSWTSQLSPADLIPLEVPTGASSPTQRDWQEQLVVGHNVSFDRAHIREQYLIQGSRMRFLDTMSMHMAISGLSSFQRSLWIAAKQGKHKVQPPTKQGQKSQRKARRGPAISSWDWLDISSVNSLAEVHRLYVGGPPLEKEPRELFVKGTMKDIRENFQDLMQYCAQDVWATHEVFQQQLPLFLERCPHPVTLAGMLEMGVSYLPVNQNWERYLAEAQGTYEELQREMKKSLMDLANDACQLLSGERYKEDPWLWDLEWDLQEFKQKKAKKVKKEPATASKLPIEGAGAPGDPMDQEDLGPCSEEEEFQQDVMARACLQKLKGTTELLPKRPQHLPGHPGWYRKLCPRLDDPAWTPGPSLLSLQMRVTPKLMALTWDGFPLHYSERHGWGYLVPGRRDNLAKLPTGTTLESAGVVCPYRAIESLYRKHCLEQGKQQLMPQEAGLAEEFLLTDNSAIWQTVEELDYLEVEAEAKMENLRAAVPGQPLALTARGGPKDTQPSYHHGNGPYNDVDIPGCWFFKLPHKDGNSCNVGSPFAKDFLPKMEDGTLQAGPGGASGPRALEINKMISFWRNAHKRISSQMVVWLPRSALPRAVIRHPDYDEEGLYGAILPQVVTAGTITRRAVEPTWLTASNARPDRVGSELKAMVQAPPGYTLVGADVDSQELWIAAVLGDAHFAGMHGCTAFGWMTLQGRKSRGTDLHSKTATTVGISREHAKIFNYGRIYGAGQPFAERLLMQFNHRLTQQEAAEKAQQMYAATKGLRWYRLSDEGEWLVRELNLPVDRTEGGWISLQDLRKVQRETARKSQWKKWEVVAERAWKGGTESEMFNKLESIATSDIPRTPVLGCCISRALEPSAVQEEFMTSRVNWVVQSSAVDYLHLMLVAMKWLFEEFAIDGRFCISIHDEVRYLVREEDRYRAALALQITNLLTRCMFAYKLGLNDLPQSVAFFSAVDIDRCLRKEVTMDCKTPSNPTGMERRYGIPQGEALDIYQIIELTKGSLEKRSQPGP
Sequence of human POLγA (hPOLγA WT);human POLγB (hPOLγB) (Q9UHN1 26-485, chain 2 of 2): as the sequence (Q9UHN1 26-485, chain 2 of 2) above

increase in Tm of PolγA in complex with PolγB [1]: 9 °C
Molecule: mouse DNA polymerase γ accessory subunit, wild type (mPolγB^WT) (natural protein)

increase in Tm of PolγA in complex with PolγB [2]: 9 °C
Molecule: mouse DNA polymerase γ accessory subunit, wild type (mPolγB^WT)

B1: cryo-EM primer-template 40/25 with 3' mismatch (dsDNA)
DNA 1: TTTTTTTTTTATCCGGGCTCCTCTAGACTCGACCGCATGC
DNA 2: GCATGCGGTCGAGTCTAGAGGAGCT
binding result [3]: binds
binding result [4]: binds

B2: EMSA primer-template 36/21 (dsDNA)
DNA 1: TTTTTTTTTTATCCGGGCTCCTCTAGACTCGACCGC
DNA 2: GCGGTCGAGTCTAGAGGAGCC
binding result [5]: binds
binding result [6]: binds
